# Measurements reported in patent US20230040568A1 (ALBERT EINSTEIN COLLEGE OF MEDICINE, published 2023).
# Substitutions are numbered along the chain they refer to.
# B1: KIR3DL3 expressed on cells (3T3 cell line expressing KIR3DL3; KIR3DL3+ NK92 cells; primary KIR3DL3+ NK cells and CD8 T cells) (receptor)
# chain: QDKPFLSAWPGTVVSEGQHVTLQCRSRLGFNEFSLSKEDGMPVPELYNRIFRNSFLMGPVTPAHAGTYRCCSSHPHSPTGWSAPSNPVVIMVTGVHRKPSLLAHPGPLVKSGETVILQCWSDVRFERFLLHREGITEDPLRLVGQLHDAGSQVNYSMGPMTPALAGTYRCFGSVTHLPYELSAPSDPLDIVVVGLYGKPSLSAQPGPTVQAGENVTLSCSSRSLFDIYHLSREAEAGELRLTAVLRVNGTFQANFPLGPVTHGGNYRCFGSFRALPHAWSDPSDPLPVSVTGNSRNLHVLIGTSVVIIPFAILLFFLLHRWCANKKNAVVMDQEPAGNRTVNREDSDEQDPQEVTYAQLNHCVFTQRKITRPSQRPKTPPTDTSV
# notes: also called KIR3DL3-expressing 3T3 cells; KIR3DL3 WT
# B2: TMIGD2 expressed on 3T3 cells (receptor, UniProt Q96BF3 23-282, looked up)
# chain: LSVQQGPNLLQVRQGSQATLVCQVDQATAWERLRVKWTKDGAILCQPYITNGSLSLGVCGPQGRLSWQAPSHLTLQLDPVSLNHSGAYVCWAAVEIPELEEAEGNITRLFVDPDDPTQNRNRIASFPGFLFVLLGVGSMGVAAIVWGAWFWGRRSCQQRDSGNSPGNAFYSNVLYRPRGAPKKSEDCSGEGKDQRGQSIYSTSFPQPAPRQPHLASRPCPSPRPCPSPRPGHPVSMVRVSPRPSPTQQPRPKGFPKVGEE
# notes: whole, on cells
# B3: monoclonal 14F8 (antibody, V domains shown)
# VH: QVQLQQSGPEVVRPGVSVKISCKGSGYTFTDYTMHWVKQSHAKSLEWIGVISTYNGNTNYNQNFEGKATMTVDKSSSTAYMELARLTSEDSAIYYCARERGGDGYYSAVDYWGQGTSVTVS
# VL: SIVMTQTPKFLLVSAGDRVTITCKASQSVINDVAWYQQKPGQSPKLLIYYASNRYTGVPDRFTGSGYGTDFTFTISTVQAEDLAVYFCQQDYSSPYTFGGGTKLEIKR
# B4: monoclonal 51C3 (antibody, V domains shown)
# VH: EVQLQQSGPELVKPGASVKISCKTSGYTFTEYIMHWVKQSHGKSLEWIGGINPNNGGTNYNQKFKGKATLTVDTSSSIAYMELRSLTSEDSAVYYCARDDGYYVKFAYWGQGTLVTVSA
# VL: B3 VL with Y96F, G100S
# notes: Mouse hybridoma mAb; Entries include leader
# B5: monoclonal 11G8 (antibody, V domains shown)
# VH: QVQLQQSGPDLVRPGVSVKISCKGSGYTFTDYAMHWVKQSHAKSLEWIGVISTDSGTTNYNQKFKGKATMTVDKSSSTAYMDLARLTSEDSAIYYCARDSSYYVRFSYWGQGTLVTVSA
# VL: B3 VL with A15V, I30S, Y96W
# notes: as for B4
# B6: monoclonal 29H7 (antibody, V domains shown)
# VH: QVQLQQSGPEVVRPGVSVKISCKGSGYTFTDYVMHWVKQSHGKSLEWIGVISTYNGNTNYNQKFKGKATMTVDKSSSTAYMELARLTSEDSAIYYCARERGGDGYYSAMDYWGQGTSVTVSS
# VL: B3 VL with T22A, D32N, K45E, S76T
# notes: Mouse hybridoma mAb; Entries include (partial) leader
# B7: monoclonal 3B7 (antibody, V domains shown)
# VH: QVQLQQSGPEVVRPGVSVKISCKGSGYTFSDYTMHWVKQSHAKSLEWIGVISTDNGNTNYNQKFKGKATMTVDKSSSTAYMELARLTSEDSAIYYCAREARDYGSIYALDYWGQGTSVTVS
# VL: DIQMTQSPASLSASVGETVTITCRASGNIHNYLAWYQQKQGKSPQLLVYNAKTLADGVPSRFSGSGSGTQYSLKINNLQPEDFGNYYCQHFWSTPWTFGGGTKLEIKR
# notes: Mouse hybridoma mAb; Entries include leader; Counted on the printed text
# B8: monoclonal 26E10 (antibody, V domains shown)
# VH: QAYLQQSGAELVRSGASVKMSCKASGYTFTSYNIHWVKQTPGQGLEWIGYIYPGDGVTNYNQKFKGKATLTADTSSSTAYMQISSLTSEDSAVYFCARSGNYGNYEGFAYWGQGTLVTVSA
# VL: DIKMTQSPSSMYASLGERVTITCKASQDTNSYLSWFQQKPGKSPKTLIYRANRLVDGVPSRFSGSGSGQDYSLTISSLEYEDMGIYYCLQYDEFPYTFGGGTKLEIK
# B9: monoclonal 12A10 (antibody, V domains shown)
# VH: B8 VH with I34M, Y52F, V57G, N101Y
# VL: DIKMTQSPSSMYASLGERVTITCKASQDINSYLSWFQQKPGKSPKTLIYRANRLVDGVPSRFSGSGSGQDYSLTISSLEYEDMGIYYCLHYAEFPYTFGGGTKLEIKR
# B10: monoclonal 31C4 (antibody, V domains shown)
# VH: B8 VH with I34M, Y52F, V57G
# VL: B9 VL with H90Q, A92D
# notes: Mouse hybridoma mAb; Entries include leader (and vector-derived residues in the VL)
# B11: monoclonal 37A3 (antibody, V domains shown)
# VH: QVQLVETGGGLVRPGNSLKLSCVTSGFTFSNYRMHWLRQPPGKRLEWIAVITVKSDNYGANFAESVKGRFTISRDDSKSSVYLQMNRLREEDTATYYCSRGSGPGFAYWGQGTLVTVS
# VL: DIVMTQSPSSLSVSAGEKVTMSCKSSQSLLNSGNQKNYLAWYQQKPGQPPKLLIYGASTRESGVPDRFTGSGSGTDFTLTISSVQAEDLAVYYCQNDHSYPFTFGSGTKLEIK
# notes: Mouse hybridoma mAb
# B12: monoclonal 8G7 (antibody, V domains shown)
# VH: EVMLVESGGGLVKPGGSLKLSCAASGFTFSTYAMSWVRQTPEKRLEWVATILSGGNYTYYPDSVKGRFTISRDNAKNTLNLQMSSLRSEDTAMYYCVIPYGSSPFDYWGQGTTLTVS
# VL: SIVMTQTPKFLLVSAGDRVTITCKASQSVSNDVAWYQQKPGQSPKLLIYYASNRYTGVPDRFTGSGYGTDFTFTISTVQAEDLAVYFCQQDYSSPWTFGGGTKLEIK
# notes: Mouse hybridoma mAb; also called anti-KIR3DL3 mAb clone 8G7
# B13: monoclonal 30D10 (antibody, V domains shown)
# VH: EVQLQQSGAELVRPGALVKLSCKASGFNFKDYFMHWVKQRPEQGLEWIGWIDPENGNTIYEPKFQGKASITADTSSNTAYLQLSSLTSEDTAVYYCARGGVGHWYFDVWGAGTTVTVS
# VL: DIVLTQSPASLAVSLGQRATISCKASQSVDYDGDSYMNWYQQKPGQPPKLLIYVASNLKSGIPARFSGSGCGTDFTLNIHPVEEEDGATYYCQQTNEDPWTFGGGTKLEIK
# notes: Mouse hybridoma mAb; VH entry includes leader and vector-derived residues
# B14: monoclonal 34B10 (antibody, V domains shown)
# VH: EVKLVESGGVLVQPGGSLRLSCATSGFTFTDYYMGWVRQPPGKALEWLGFIRNKANGYTTESSASVKGRFTISRDNSQSILYLQMNTLRAEDSATYYCARDYYSGSSLDYWGQGTTLTVSS
# VL: DIQMTQTTSSLSASLGDRVTISCRASQDISNYLNWYQQKPDGTVKLLIYYTSRLHSGVPSRFSGSGSGTDYSLSISNLEQEDIATYFCQQGYTLPYTFGGGTKLEIKR
# notes: as for B4
# B15: KIR3DL3 D0D1D2-Ig fusion polypeptide (Fc fusion)
# chain: QDKPFLSAWPGTVVSEGQHVTLQCRSRLGFNEFSLSKEDGMPVPELYNRIFRNSFLMGPVTPAHAGTYRCCSSHPHSPTGWSAPSNPVVIMVTGVHRKPSLLAHPGPLVKSGETVILQCWSDVRFERFLLHREGITEDPLRLVGQLHDAGSQVNYSMGPMTPALAGTYRCFGSVTHLPYELSAPSDPLDIVVVGLYGKPSLSAQPGPTVQAGENVTLSCSSRSLFDIYHLSREAEAGELRLTAVLRVNGTFQANFPLGPVTHGGNYRCFGSFRALPHAWSDPSDPLPVSVTGNSRNLHVL
# notes: Expressed in an S2 system; also called whole extracellular portion of KIR3DL3; whole extracellular part of KIR3DL3; not shown: human IgG1 Fc tag
# B16: KIR3DL3 D0-Ig fusion polypeptide (Fc fusion)
# chain: QDKPFLSAWPGTVVSEGQHVTLQCRSRLGFNEFSLSKEDGMPVPELYNRIFRNSFLMGPVTPAHAGTYRCCSSHPHSPTGWSAPSNPVVIMVTGVHRKPSLLA
# notes: Expressed in an S2 system; also called KIR3DL3 DO-Ig; KIR3DL3 D0(Q26-A128)-Ig; not shown: human IgG1 Fc tag
# B17: TMIGD2-mIg fusion polypeptide (Fc fusion, UniProt Q96BF3 23-150, looked up)
# chain: LSVQQGPNLLQVRQGSQATLVCQVDQATAWERLRVKWTKDGAILCQPYITNGSLSLGVCGPQGRLSWQAPSHLTLQLDPVSLNHSGAYVCWAAVEIPELEEAEGNITRLFVDPDDPTQNRNRIASFPG
# notes: not shown: mouse Ig part (mIg), detected with anti-mouse IgG Fc
# Biological target: T1, HHLA2 expressed on cells (3T3 cell line expressing HHLA2; HHLA2/K562) (UniProt Q9UM44 23-414, limits assumed)
# T1 construct: whole, on cells
# T1 sequence (looked up): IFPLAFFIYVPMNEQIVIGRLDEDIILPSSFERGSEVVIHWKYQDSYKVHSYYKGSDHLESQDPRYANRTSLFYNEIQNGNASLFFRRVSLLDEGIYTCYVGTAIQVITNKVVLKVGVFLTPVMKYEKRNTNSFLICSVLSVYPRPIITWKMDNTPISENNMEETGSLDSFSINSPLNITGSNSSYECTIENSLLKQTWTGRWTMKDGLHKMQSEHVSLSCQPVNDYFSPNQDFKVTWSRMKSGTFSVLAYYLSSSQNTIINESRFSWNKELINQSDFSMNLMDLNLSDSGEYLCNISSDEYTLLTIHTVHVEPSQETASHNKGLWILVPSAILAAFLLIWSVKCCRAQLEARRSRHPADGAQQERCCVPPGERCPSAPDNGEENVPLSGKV
# Test: intercellular conjugate assay (FIG. 2B)
row,binding result,Binder
1,binds,B1

# Biological target: T2, HHLA2 EC-Ig-Fc fusion polypeptide (UniProt Q9UM44 23-344)
# T2 construct: extracellular domain; also called whole extracellular part of HHLA2; not shown: Ig Fc part
# T2 sequence (looked up): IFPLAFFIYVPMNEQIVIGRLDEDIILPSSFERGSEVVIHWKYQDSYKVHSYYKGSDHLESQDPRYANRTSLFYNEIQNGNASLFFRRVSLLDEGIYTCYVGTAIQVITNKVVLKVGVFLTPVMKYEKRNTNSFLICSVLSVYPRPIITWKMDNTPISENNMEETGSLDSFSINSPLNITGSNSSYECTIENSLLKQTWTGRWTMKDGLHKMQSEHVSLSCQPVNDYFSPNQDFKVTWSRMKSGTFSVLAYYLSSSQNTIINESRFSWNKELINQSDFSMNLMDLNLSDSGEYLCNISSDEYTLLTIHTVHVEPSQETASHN
# Test: FACS, staining of 3T3 cells expressing TMIGD2 (FIG. 8)
# Source text: To examine the binding of TMIGD2 to HHLA2, 3T3 cell lines expressing TMIGD2 were stained with a HHLA2 EC-Ig-Fc fusion polypeptide, a HHLA-2-IgV1-hIgG fusion polypeptide, or Ig (control) (FIG. 8).
row,binding result,Binder
1,binds,B2

# Biological target: T3, KIR3DL3 protein (antigen of the affinity determination of Table 3) (human, UniProt Q8N743 26-325, limits assumed)
# T3 construct: also called human KIR3DL3
# Test: method and antigen format not stated
row,Kd [nM],Binder
1,0.69,B3
2,0.19,B4
3,0.29,B5
4,1.13,B6
5,0.51,B7
6,0.17,B8
7,0.69,B9
8,0.72,B10
9,8.5,B11
10,0.11,B12
11,0.16,B13
12,1.51,B14

# Biological target: T1, HHLA2 expressed on cells (3T3 cell line …)
# Test: FACS, staining of 3T3 cells expressing HHLA2 (FIG. 2C)
row,binding result,Binder
1,binds,B15
2,binds,B16

# Biological target: T1, HHLA2 expressed on cells (3T3 cell line …)
# Test: FACS on 3T3 cells expressing HHLA2, TMIGD2-mIg (FIGS. 3A-3B)
# Experimental: FIG. 3A is a chart depicting mean fluorescent intensity (MFI) of 3T3 cells expressing HHLA2 that were incubated with TMIGD2-mIg fusion polypeptide or control mIgG at the indicated concentrations prior to staining with 10 μg/ml KIR3DL3-hIg followed by Allophycocyanin (APC)-conjugated anti-human IgG Fc.
# FIG. 3B is a chart depicting MFI of 3T3 cells expressing HHLA2 that were incubated with KIR3DL3-hIg fusion polypeptide or control hIgG at the indicated concentrations prior to staining with 10 μg/ml TMIGD2-mIg followed by APC anti-mouse IgG Fc.
row,binding result,Binder
1,binds,B17
